Assay [1] deals with Hyaluronic acid synthesis. Particulars: cited from earlier work.
The target of assay [2] is T1, X1HAS1 (Xenopus laevis, UniProt P13563).
T1 construct: dodeca-histidine (His12) (N); made in house; host or cells: Spodoptera frugiperda Sf9 cells (baculovirus)
T1 sequence (P13563 1-588): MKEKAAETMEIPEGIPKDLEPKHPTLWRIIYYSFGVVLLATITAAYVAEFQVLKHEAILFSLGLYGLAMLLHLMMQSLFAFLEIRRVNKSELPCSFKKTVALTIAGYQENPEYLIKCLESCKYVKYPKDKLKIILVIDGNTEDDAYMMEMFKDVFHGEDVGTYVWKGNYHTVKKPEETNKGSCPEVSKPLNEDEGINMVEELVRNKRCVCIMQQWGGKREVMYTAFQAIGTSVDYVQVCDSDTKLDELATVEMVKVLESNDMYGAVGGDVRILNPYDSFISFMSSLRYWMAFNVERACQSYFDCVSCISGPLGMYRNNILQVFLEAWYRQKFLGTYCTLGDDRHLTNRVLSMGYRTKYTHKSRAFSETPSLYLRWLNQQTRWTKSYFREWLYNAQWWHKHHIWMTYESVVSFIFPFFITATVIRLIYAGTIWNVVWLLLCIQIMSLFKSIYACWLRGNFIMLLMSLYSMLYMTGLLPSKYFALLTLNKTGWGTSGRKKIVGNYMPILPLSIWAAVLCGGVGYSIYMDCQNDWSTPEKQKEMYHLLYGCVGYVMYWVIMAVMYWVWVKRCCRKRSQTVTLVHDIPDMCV
The assay can be described thus: Substrate turnover rate quantification (UDP release, enzyme-coupled assay). It is filed as biochemical. The settings on record: for Km: one substrate titrated at saturating concentration of the other, real-time quantification of released UDP, read-out: Michaelis-Menten constant. How it is done: UDP release during HA synthesis was quantified using an enzyme-coupled assay as previously described (10, 13). Depletion of NADH was monitored at 340 nm every 60 s for 3 hours at 37° C. in a SpectraMax instrument. The raw data was processed in MS Excel and a linear phase of each reaction was determined. The rate of NADH depletion was converted to pmoles of UDP released using a UDP standardized plot (FIG. S1C) for Michaelis-Menten constant determination using GraphPad Prism. For substrate turnover rate quantification of X1HAS1 mutants, pmoles of released UDP were converted to the number of corresponding substrate turnovers per molecule of X1HAS1, per minute. Data is presented relative to wild type activity. All experiments were performed in four to eight replicates and error bars represent standard deviation from the means.
HAS transfers the UDP-activated glycosyl unit (the donor sugar) to the non-reducing end of the nascent HA polymer (the acceptor sugar). This reaction generates UDP and elongated HA as reaction products (FIG. 1A). Catalytic activity can be assessed by monitoring the release of UDP in an enzyme-coupled reaction, as previously described (10, 13), or quantifying HA, either radiometrically or by dye staining following electrophoresis.

For assay [3], the target named is T1, X1HAS1. Kind of assay: Electrophoretic HA size determination (agarose gel, Stains-all) of in vitro synthesized HA. It is filed as biochemical. The method, then:
To assess the size of HA synthesized by X1HAS1, similar reaction conditions were applied to the ones described above. […] […] Controls were carried out by digesting the synthesized polymers with hyaluronidase. Synthesis reactions were mixed with SDS-PAGE loading dye and applied to a 1% agarose gel (Ultra-pure agarose, Invitrogen) casted in an Owl B2 system (ThermoFisher). […] After the run, the gel was equilibrated in 50% ethanol for 1.5 h and subjected to staining in 0.05% Stains-all (Sigma) in 50% ethanol overnight under light-protection. Post-staining background was reduced by soaking the gel in 20% ethanol for 3-7 days in the dark. The migration of the synthesized HA species was compared to HA standards from Streptococcus equi (Sigma), as well as enzymatically generated ladders: HA LoLadder and HA HiLadder (Hyalose).

The test system of assay [4] is HAS isoforms. Particulars: cited from earlier work.

We go through six molecules from US20260286413A1, “HYALURONAN SYNTHESIS, SECRETION AND LENGTH CONTROL” (UNIVERSITY OF VIRGINIA, priority 2023, published 2026).

For the molecule `Cc1cc(=O)oc2cc(O)ccc12` [4-methylumbelliferone], the “effect on hyaluronic acid synthesis” value in assay [1] is “inhibited”.
Take `O=C(O)[C@H]1O[C@H](OP(=O)(O)OP(=O)(O)OC[C@H]2O[C@@H](n3ccc(=O)[nH]c3=O)[C@H](O)[C@@H]2O)[C@H](O)[C@@H](O)[C@@H]1O` [UDP-GlcA, reference compound]: the Km in assay [2] was ~370 µM.
Consider `CC(=O)N[C@H]1[C@@H](OP(=O)(O)OP(=O)(O)OC[C@H]2O[C@@H](n3ccc(=O)[nH]c3=O)[C@H](O)[C@@H]2O)O[C@H](CO)[C@@H](O)[C@@H]1O` [UDP-GlcNAc, reference compound], for which the Km in assay [2] is ~470 µM.

B1: X1HAS1: Xenopus laevis HA synthase isoform 1, wild type (Uniprot P13563, SEQ ID NO: 9) (protein, UniProt P13563 1-588, looked up)
Hyaluronan synthase 1: T1 sequence (P13563 1-588)
For B1, in assay [2] (Mn2+ instead of Mg2+), the “activity reduction when manganese is used instead of magnesium as cofactor” value is on record as “about 30%”. In assay [2] (UDP release), the overall catalytic rate entry is recorded as “approximately 30 substrate turnovers per minute”. Further, the “HA production with Mn2+” value in assay [3] (agarose gel assay, Mn2+ versus Mg2+) is on record as “reduces HA production slightly”. In addition, the “catalytic rate suggested by electrophoretic analysis versus rate by UDP quantification” value in assay [3] (based on ~1.6 MDa produced within 90 min) is “about 2 times”. In addition, the “size of HA polymers with sustained high substrate” value in assay [3] (both substrates (2.5 mM) supplemented at 2, 4, 6 h, UDP converted to UTP) is > 1.6 MDa. In addition, the “size of HA polymers synthesized at completion” value in assay [3] (in vitro synthesis, relative to HA marker) was > 1.6 MDa. Further, the HA product length in assay [3] (produced within 90 min) is ~ 1.6 MDa. Moreover, the “change of HA size with one substrate limiting” value in assay [3] (substrate replenishing, UDP-GlcNAc at 0.1-1 mM) was “no increase in HA size”. The “maximum HA extension” value in assay [3] (without UDP removal, 2.5 mM of both substrates) is ~1.6 MDa.

B2: HAS2: human HA synthase isoform 2 (protein, UniProt Q92819 1-552, looked up)
Hyaluronan synthase 2: MHCERFLCILRIIGTTLFGVSLLLGITAAYIVGYQFIQTDNYYFSFGLYGAFLASHLIIQSLFAFLEHRKMKKSLETPIKLNKTVALCIAAYQEDPDYLRKCLQSVKRLTYPGIKVVMVIDGNSEDDLYMMDIFSEVMGRDKSATYIWKNNFHEKGPGETDESHKESSQHVTQLVLSNKSICIMQKWGGKREVMYTAFRALGRSVDYVQVCDSDTMLDPASSVEMVKVLEEDPMVGGVGGDVQILNKYDSWISFLSSVRYWMAFNIERACQSYFGCVQCISGPLGMYRNSLLHEFVEDWYNQEFMGNQCSFGDDRHLTNRVLSLGYATKYTARSKCLTETPIEYLRWLNQQTRWSKSYFREWLYNAMWFHKHHLWMTYEAIITGFFPFFLIATVIQLFYRGKIWNILLFLLTVQLVGLIKSSFASCLRGNIVMVFMSLYSVLYMSSLLPAKMFAIATINKAGWGTSGRKTIVVNFIGLIPVSVWFTILLGGVIFTIYKESKRPFSESKQTVLIVGTLLYACYWVMLLTLYVVLINKCGRRKKGQQYDMVLDV
Consider B2, for which the “HA polymer size” value in assay [4] is reported as “several megadaltons”.

B3: HAS1: human HA synthase isoform 1 (protein, UniProt Q92839 1-578, looked up)
Hyaluronan synthase 1: MRQQDAPKPTPAACRCSGLARRVLTIAFALLILGLMTWAYAAGVPLASDRYGLLAFGLYGAFLSAHLVAQSLFAYLEHRRVAAAARGPLDAATARSVALTISAYQEDPAYLRQCLASARALLYPRARLRVLMVVDGNRAEDLYMVDMFREVFADEDPATYVWDGNYHQPWEPAAAGAVGAGAYREVEAEDPGRLAVEALVRTRRCVCVAQRWGGKREVMYTAFKALGDSVDYVQVCDSDTRLDPMALLELVRVLDEDPRVGAVGGDVRILNPLDSWVSFLSSLRYWVAFNVERACQSYFHCVSCISGPLGLYRNNLLQQFLEAWYNQKFLGTHCTFGDDRHLTNRMLSMGYATKYTSRSRCYSETPSSFLRWLSQQTRWSKSYFREWLYNALWWHRHHAWMTYEAVVSGLFPFFVAATVLRLFYAGRPWALLWVLLCVQGVALAKAAFAAWLRGCLRMVLLSLYAPLYMCGLLPAKFLALVTMNQSGWGTSGRRKLAANYVPLLPLALWALLLLGGLVRSVAHEARADWSGPSRAAEAYHLAAGAGAYVGYWVAMLTLYWVGVRRLCRRRTGGYRVQV
As to B3, the “HA polymer size” value in assay [4] is “several megadaltons”.
